Results on 23 molecules are retold here after patent publication US20230054634A1 (INSTYTUT BIOLOGII DO WIADCZALNEJ IM MARCELEGO NENCKIEGO …, published 2023).

Where no end group is shown, it is not given here. The star is where a group is joined. Biotin = O=C1N[C@H]2[C@H](CS[C@H]2CCCCC(=O)*)N1

First the molecules themselves.
B1: G7K2 (peptide)
peptide: YKKLSYLDFQYQLD
notes: also called G7 variant with lysine in position 2
B2: G7 C-terminal (peptide)
peptide: Biotin-DFQYQLD
notes: also called C-terminal (DFQYQLD); short variant of G7
B3: G7 N-terminal (peptide)
peptide: Biotin-YQKLSYL
notes: also called N-terminal (YQKLSYL); short variant of G7
B4: G7 central portion (peptide)
peptide: Biotin-LSYLDFQ
notes: also called central (LSYLDFQ); short variant of G7
B5: G7 variant (A14) (peptide)
peptide: YQKLSYLDFQYQLA
notes: ELISA as for the biotin-labelled peptides
B6: G7 variant (A11) (peptide)
peptide: YQKLSYLDFQAQLD
notes: as for B5
B7: G7 variant (A12) (peptide)
peptide: YQKLSYLDFQYALD
notes: ELISA as for the biotin-labelled peptides; also called Al2
B8: G7 variant (A13) (peptide)
peptide: YQKLSYLDFQYQAD
notes: ELISA as for the biotin-labelled peptides; also called Al3
B9: G7 variant (A16) (peptide)
peptide: KQPRTYQKLSYLDFQYQLD
notes: ELISA as for the biotin-labelled peptides; also called W2

The target of one test is T1, recombinant human GM-CSF protein, Myc-tagged/His-tagged (human, UniProt P04141 18-144).
T1 construct: also called Granulocyte Macrophage Colony Stimulating Factor; CSF2; not shown: Myc tag and His tag from the expression vector
T1 sequence (P04141 18-144): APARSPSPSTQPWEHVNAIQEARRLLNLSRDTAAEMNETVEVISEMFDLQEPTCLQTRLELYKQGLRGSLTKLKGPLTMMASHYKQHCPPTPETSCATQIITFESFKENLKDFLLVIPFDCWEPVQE
Put plainly: ELISA on GM-CSF, relative to G7.
As for YQKLSYLDFQYQKDK [G7K15], the Relative binding came out at 60. In the case of YQKLSYLDFQKQLD [G7K11], the Relative binding stood at 108. In the case of YQKLSYLDFQYQKD [G7K13], the Relative binding turned out to be 108. Consider B1, for which the Relative binding came out at 2. For the molecule KYQKLSYLDFQYQLD (also called G7K-1 variant) [G7K-1], the Relative binding is 95.

The next test addresses T1, recombinant human GM-CSF protein, …. Put plainly: ELISA, GM-CSF coated, biotin-labelled peptide, anti-biotin detection. The procedure: (§1) Next, unbound proteins were washed out, then the wells were blocked with 5% BSA (bovine serum albumin) in saline and peptides labeled with N-terminal biotin (purchased from GenScript) were added. […] HRP catalyzes the conversion of chromogenic substrates into colored products. The amount of bound peptide was proportional to the amount of the colored product, and it was measured using a spectrophotometer.
(ELISA stands for enzyme-linked immunosorbent assay.)
Consider Biotin-NHEVEDEIIWEEFT [G25 peptide], for which the binding result is “binds”. Same read-out and setting: the entry for Biotin-HSVKIRAADVRILN [G14 peptide] is “binds”.

For the next test the target is unchanged. Put plainly: ELISA, GM-CSF coated, biotin-labelled peptide. The procedure: as §1
(SEQ ID NO: 1). […] These peptides, labeled with a N-terminal biotin, were purchased from GenScript.
Turning to B2, the binding result was “no binding”. Regarding B3, the binding result was “no binding”. As to B4, the binding result is “no binding”.

The next test shares this target. The test is described as follows: ELISA, GM-CSF coated. The procedure:
as §1
Turning to YQKLSYLDFAYQLD [G7 variant (A10)], the binding result is “binds”. Same read-out and setting: then B5, with “binds”; and B6, with “binds”; and B7, with “binds”.

B8: the binding result is listed as “binds”. B9: the binding result is listed as “binds”.

The target is the same in another test. Put plainly: SPR (BIAcore 3000), GM-CSF immobilised, peptide injected. (Surface plasmon resonance follows binding to a sensor surface in real time, without labels.)
With RFLRIQRLFPPVPQ [G22 peptide], the binding result is recorded as “binds”.

Take Biotin-IERFNPPSNVTVRC [G3 peptide]: the binding result is “binds”. Consider VLGFLFKRFLRIQR [G21 peptide], for which the binding result was “binds”. Turning to RWKQPRTYQKLSYL [G6 peptide], the binding result is “binds”. On to Biotin-WSSWSEAIEFGSDD [G16 peptide], for which the binding result is recorded as “binds”. On to NTTHCLVRWKQPRT [G5 peptide], for which the binding result is listed as “binds”. Consider Biotin-ADVRILNWSSWSEA [G15 peptide], for which the binding result is “binds”.
